Tests used:
Assay in all cases: crystal structure; sitting-drop vapor diffusion, ammonium sulfate, 0.1 M HEPES pH 7.5, 0.2 M NaCl, 25% glycerol; space group C222_(1), two molecules (A/B dimer) in the asymmetric unit, tetramer by the crystallographic two-fold axis
Settings in all cases: both partners purified
[1] = target: T1, NylCp2-G^122 alpha subunit (D122G) (Arthrobacter, UniProt Q79F77 1-266, D122G)
T1 construct: NylCp2 alpha subunit with D122G; also called α subunit of NylCp2-G^122; source: E. coli JM109, purified with the beta subunit as the active enzyme
T1 sequence (looked up): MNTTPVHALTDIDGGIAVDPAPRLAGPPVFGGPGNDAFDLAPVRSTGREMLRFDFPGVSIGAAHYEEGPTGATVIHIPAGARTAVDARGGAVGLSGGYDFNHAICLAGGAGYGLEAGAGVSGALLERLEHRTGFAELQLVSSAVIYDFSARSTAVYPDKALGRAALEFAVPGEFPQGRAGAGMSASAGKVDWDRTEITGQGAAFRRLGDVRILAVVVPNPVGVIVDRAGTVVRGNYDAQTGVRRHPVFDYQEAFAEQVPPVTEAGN

[2] = target: T2, NylCp2-R^122 alpha subunit (D122R) (Arthrobacter, UniProt Q79F77 1-266, D122R)
T2 construct: NylCp2 alpha subunit with D122R; also called α subunit of NylCp2-R^122; source: E. coli JM109, purified with the beta subunit as the active enzyme
T2 sequence (looked up): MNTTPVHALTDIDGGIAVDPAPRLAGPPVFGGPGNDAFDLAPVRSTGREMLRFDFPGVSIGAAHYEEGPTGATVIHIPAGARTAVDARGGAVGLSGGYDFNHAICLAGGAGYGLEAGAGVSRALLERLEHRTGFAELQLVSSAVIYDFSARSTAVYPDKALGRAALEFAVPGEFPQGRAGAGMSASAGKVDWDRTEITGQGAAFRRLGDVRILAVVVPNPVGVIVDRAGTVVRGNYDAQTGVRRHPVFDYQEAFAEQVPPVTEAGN

[3] = target: T3, NylCp2-K^122 alpha subunit (D122K) (Arthrobacter, UniProt Q79F77 1-266, D122K)
T3 construct: NylCp2 alpha subunit with D122K; also called α subunit of NylCp2-K^122; source: E. coli JM109, purified with the beta subunit as the active enzyme
T3 sequence (looked up): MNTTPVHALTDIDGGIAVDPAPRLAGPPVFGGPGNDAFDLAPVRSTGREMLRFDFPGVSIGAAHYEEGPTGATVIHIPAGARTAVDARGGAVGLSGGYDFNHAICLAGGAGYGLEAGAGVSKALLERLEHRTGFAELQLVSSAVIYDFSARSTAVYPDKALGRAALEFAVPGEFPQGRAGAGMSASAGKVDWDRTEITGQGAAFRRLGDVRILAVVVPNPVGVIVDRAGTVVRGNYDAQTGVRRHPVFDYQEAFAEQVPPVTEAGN

[4] = target: T4, NylCp2-V^122 alpha subunit (D122V) (Arthrobacter, UniProt Q79F77 1-266, D122V)
T4 construct: NylCp2 alpha subunit with D122V; also called α subunit of NylCp2-V^122; source: E. coli JM109, purified with the beta subunit as the active enzyme
T4 sequence (looked up): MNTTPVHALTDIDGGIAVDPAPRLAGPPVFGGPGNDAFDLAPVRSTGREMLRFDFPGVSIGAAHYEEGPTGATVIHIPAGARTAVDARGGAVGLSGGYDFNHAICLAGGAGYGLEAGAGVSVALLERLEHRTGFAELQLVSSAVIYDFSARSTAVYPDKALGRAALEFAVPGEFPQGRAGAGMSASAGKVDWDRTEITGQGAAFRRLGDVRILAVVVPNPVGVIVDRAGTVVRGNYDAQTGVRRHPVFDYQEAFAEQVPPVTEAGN

[5] = target: T5, NylCp2-Y^130 alpha subunit (H130Y) (Arthrobacter, UniProt Q79F77 1-266, H130Y)
T5 construct: NylCp2 alpha subunit with H130Y; also called α subunit of NylCp2-Y^130; source: E. coli JM109, purified with the beta subunit as the active enzyme
T5 sequence (looked up): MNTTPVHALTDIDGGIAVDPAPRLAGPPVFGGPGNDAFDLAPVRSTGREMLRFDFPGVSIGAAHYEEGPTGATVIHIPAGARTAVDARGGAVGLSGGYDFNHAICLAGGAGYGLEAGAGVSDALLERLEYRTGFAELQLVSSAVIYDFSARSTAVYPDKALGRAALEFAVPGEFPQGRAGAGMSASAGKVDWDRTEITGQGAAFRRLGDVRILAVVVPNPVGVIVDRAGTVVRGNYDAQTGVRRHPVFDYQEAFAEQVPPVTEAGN

[6] = target: T6, NylCp2-G^122Y^130A^36Q^263 alpha subunit (D122G/H130Y/D36A/E263Q) (Arthrobacter, UniProt Q79F77 1-266, D122G | H130Y | D36A | E263Q)
T6 construct: NylCp2 alpha subunit with four substitutions; also called α subunit of NylCp2-G^122Y^130A^36Q^263; source: E. coli JM109, purified with the beta subunit as the active enzyme
T6 sequence (looked up): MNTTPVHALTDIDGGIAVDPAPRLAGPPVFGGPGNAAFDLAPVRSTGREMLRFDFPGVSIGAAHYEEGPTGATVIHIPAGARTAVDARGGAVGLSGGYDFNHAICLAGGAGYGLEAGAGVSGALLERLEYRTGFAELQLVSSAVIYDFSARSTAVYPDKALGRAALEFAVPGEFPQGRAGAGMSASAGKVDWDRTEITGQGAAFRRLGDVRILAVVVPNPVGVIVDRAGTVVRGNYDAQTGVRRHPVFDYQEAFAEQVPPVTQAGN

Measured: binding result

B1: NylCp2 beta subunit (9 kDa) (domain or fragment, Arthrobacter, UniProt Q79F77 267-355, looked up)
chain: TTISAIVTNVRMSPVELNQFAKQVHSSMHRGIQPFHTDMDGDTLFAVTTDEIDLPTTPGSSRGRLSVNATALGAIASEVMWDAVLEAGK
notes: NylCp2, beta subunit made by autocleavage of the 355-residue precursor between Asn266 and Thr267; the same in the wild type and in the mutants crystallised here (all their substitutions lie in the alpha subunit); also called β subunit; source: E. coli JM109, purified with the alpha subunit as the active enzyme
binds: all assays above
